Source: publication PMC11528890
“And” between values parts separate entries of the source, which are not always exact repeats. Identical values can stand only once.

Target: nitrogenase MoFe-protein (Azotobacter vinelandii) (UniProt P07328)
Assay: cryo-EM structure; single particle cryoEM of the ADP-AlF4- stabilized complex of the two nitrogenase proteins; grids prepared anaerobically in the vinyl tent; carbon-layered grids

Sequence of UniProt P07328 (P07328 whole entry, chain 1 of 2): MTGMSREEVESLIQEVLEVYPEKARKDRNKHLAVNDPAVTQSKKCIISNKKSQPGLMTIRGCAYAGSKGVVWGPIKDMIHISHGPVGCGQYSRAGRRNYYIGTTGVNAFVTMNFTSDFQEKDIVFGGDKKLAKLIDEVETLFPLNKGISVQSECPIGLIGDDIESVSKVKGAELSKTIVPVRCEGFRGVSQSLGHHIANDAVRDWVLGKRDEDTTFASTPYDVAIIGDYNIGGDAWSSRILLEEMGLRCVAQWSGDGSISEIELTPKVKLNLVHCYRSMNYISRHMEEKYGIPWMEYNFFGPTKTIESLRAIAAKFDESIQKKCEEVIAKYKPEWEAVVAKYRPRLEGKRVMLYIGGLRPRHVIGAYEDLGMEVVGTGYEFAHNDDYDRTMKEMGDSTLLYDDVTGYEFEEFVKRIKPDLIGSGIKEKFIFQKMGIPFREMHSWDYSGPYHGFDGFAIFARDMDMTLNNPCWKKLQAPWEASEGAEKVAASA
Sequence of UniProt P07328 (P07329 whole entry, chain 2 of 2, further chain): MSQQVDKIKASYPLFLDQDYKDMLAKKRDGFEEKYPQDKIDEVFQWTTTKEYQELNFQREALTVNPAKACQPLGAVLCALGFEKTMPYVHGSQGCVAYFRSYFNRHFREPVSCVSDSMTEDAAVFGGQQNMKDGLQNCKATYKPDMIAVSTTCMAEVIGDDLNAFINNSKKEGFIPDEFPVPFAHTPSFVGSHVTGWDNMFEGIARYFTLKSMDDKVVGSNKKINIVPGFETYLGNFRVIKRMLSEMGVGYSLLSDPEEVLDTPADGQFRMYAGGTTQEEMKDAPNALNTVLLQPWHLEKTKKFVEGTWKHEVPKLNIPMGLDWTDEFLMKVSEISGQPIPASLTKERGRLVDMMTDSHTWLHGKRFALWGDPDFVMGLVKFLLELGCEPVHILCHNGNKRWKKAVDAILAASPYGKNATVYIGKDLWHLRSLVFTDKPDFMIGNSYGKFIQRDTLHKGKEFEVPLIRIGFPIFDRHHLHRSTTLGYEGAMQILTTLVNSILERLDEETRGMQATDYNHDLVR

- stoichiometry N (Fe-protein:MoFe-protein): 2 and 1
Substance: nitrogenase Fe-protein (enzyme)
